The source of these data is patent US20240261333A1, “NOVEL TARGETS FOR ENHANCING ANTI-TUMOR IMMUNITY” (THE BROAD INSTITUTE, INC., priority 2021, published 2024).

Assay [1] has as its target COPA (human) (UniProt P53621). Description: co-IP with anti-FLAG, N-FLAG B3GNT2, mass spectrometry.
Assay [2] concerns the target CPT1A (human) (UniProt P50416). The assay is described as above.
Assay [3] has as its target DDX1 (human) (UniProt Q92499). Described as above.
Assay [4] concerns the target EMILIN1 (human) (UniProt Q9Y6C2). The assay is described as above.
Assay [5] concerns the target GSN (human) (UniProt P06396). The description is as above.
Assay [6] deals with HBB (human) (UniProt P68871). The assay is described as above.
The target in assay [7] is HNRNPH1 (human) (UniProt P31943). Described as above.
In assay [8] the target is IL13RA2 (human) (UniProt Q14627). Described as above.
For assay [9], the target named is KCTD5 (human) (UniProt Q9NXV2). The description is as above.
The target of assay [10] is LCN1 (human) (UniProt P31025). Described as above.
Assay [11] deals with MAP4 (human) (UniProt P27816). The description is as above.
Assay [12] concerns the target MMP14 (human) (UniProt P50281). The assay is described as above.
Assay [13] addresses MMS19 (human) (UniProt Q96T76). Described as above.
Assay [14] deals with P0AA25.2 [thioredoxin: P0AA25]. Described as above.
The target in assay [15] is PPFIBP1 (human) (UniProt Q86W92). The description is as above.
In assay [16] the target is PSMA3 (human) (UniProt P25788). The description is as above.
For assay [17], the target named is PSMB5 (human) (UniProt P28074). The assay is described as above.
For assay [18], the target named is RACK1 (human) (UniProt P63244). The description is as above.
For assay [19], the target named is RHOT2 (human) (UniProt Q8IXI1). Described as above.
The target in assay [20] is RPL17 (human) (UniProt P18621). Described as above.
For assay [21], the target named is RPL28 (human) (UniProt P46779). Described as above.
Assay [22] has as its target RPL7 (human) (UniProt P18124). The description is as above.
Assay [23] concerns the target RPL8 (human) (UniProt P62917). Described as above.
Assay [24] deals with RPS27A (human) (UniProt P62979). The assay is described as above.
The target in assay [25] is SERPINB3 (human) (UniProt P29508). The assay is described as above.
Assay [26] concerns the target SYNPO (human) (UniProt Q8N3V7). The assay is described as above.
For assay [27], the target named is TELO2 (human) (UniProt Q9Y4R8). Described as above.
Assay [28] addresses XPO1 (human) (UniProt O14980). The assay is described as above.
In assay [29] the target is XPOT (human) (UniProt O43592). The assay is described as above.
The target of assay [30] is GEMIN4 (human) (UniProt P57678). Description: control IP with IgG, lysate of cells with N-FLAG B3GNT2, mass spectrometry.
The target of assay [31] is IMMT (human) (UniProt Q16891). The description is as above.
For assay [32], the target named is LCN1 (human) (UniProt P31025). The description is as above.
Assay [33] concerns the target LGALS7B (human) (UniProt P47929). The description is as above.
Assay [34] concerns the target MAP4 (human) (UniProt P27816). The description is as above.
The target of assay [35] is RPL28 (human) (UniProt P46779). Described as above.
Assay [36] has as its target RPL38 (human) (UniProt P63173). The assay is described as above.
The target in assay [37] is RPS26 (human) (UniProt P62854). The assay is described as above.
Assay [38] deals with RPS27A (human) (UniProt P62979). Described as above.
In assay [39] the target is S100A7 (human) (UniProt P31151). The description is as above.
The target of assay [40] is YBX1 (human) (UniProt P67809). Described as above.

Sequence of DDX1 (human) (Q92499 whole entry): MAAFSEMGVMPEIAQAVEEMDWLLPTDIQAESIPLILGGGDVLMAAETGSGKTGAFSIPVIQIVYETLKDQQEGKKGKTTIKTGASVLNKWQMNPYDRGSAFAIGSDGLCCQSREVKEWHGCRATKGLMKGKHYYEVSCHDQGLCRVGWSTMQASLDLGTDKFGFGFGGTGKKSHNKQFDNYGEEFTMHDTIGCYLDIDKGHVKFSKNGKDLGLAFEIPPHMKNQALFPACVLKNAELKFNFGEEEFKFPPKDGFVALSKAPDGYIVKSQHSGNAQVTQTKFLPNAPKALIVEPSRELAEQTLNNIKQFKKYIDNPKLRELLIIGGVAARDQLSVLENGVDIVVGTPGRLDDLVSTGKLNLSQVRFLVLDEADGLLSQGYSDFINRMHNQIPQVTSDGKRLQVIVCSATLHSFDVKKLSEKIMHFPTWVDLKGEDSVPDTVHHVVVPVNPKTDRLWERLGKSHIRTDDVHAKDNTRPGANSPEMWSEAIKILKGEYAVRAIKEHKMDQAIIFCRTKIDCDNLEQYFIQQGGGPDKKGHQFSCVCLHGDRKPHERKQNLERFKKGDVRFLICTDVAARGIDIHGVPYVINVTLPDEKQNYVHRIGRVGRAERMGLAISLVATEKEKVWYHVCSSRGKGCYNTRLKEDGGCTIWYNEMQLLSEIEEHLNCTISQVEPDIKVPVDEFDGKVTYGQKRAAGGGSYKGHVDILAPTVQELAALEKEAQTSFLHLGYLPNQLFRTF
Sequence of SERPINB3 (human) (P29508 whole entry): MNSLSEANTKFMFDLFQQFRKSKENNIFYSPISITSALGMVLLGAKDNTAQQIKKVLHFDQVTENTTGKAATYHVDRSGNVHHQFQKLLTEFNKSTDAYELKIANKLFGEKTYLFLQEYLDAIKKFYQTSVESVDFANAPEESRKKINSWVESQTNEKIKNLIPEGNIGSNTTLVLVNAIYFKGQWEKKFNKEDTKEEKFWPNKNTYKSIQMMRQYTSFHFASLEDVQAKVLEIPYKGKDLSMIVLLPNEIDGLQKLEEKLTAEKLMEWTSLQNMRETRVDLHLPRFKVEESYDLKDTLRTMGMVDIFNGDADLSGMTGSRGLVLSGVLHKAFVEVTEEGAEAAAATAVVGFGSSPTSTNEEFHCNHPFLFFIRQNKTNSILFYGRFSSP
Sequence of TELO2 (human) (Q9Y4R8 whole entry): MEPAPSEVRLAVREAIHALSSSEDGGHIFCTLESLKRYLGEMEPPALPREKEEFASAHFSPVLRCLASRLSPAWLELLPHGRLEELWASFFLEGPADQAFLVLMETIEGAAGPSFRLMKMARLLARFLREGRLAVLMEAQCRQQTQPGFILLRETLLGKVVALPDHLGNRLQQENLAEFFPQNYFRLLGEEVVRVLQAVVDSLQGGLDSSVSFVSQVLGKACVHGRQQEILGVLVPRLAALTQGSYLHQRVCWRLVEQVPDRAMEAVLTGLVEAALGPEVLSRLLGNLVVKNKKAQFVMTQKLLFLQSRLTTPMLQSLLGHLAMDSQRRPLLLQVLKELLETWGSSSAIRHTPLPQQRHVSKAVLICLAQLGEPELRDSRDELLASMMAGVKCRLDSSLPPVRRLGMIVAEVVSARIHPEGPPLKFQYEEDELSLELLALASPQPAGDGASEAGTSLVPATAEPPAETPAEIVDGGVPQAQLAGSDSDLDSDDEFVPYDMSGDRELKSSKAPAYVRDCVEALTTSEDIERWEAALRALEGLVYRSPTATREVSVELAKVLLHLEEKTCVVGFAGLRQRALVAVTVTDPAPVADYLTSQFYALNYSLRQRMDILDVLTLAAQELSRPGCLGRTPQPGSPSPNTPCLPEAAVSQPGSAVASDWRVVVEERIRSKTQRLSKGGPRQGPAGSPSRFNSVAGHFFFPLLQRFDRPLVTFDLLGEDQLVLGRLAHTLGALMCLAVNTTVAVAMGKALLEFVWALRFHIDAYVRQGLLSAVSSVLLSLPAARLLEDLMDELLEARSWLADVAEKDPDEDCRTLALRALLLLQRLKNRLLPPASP
Sequence of RHOT2 (human) (Q8IXI1 whole entry): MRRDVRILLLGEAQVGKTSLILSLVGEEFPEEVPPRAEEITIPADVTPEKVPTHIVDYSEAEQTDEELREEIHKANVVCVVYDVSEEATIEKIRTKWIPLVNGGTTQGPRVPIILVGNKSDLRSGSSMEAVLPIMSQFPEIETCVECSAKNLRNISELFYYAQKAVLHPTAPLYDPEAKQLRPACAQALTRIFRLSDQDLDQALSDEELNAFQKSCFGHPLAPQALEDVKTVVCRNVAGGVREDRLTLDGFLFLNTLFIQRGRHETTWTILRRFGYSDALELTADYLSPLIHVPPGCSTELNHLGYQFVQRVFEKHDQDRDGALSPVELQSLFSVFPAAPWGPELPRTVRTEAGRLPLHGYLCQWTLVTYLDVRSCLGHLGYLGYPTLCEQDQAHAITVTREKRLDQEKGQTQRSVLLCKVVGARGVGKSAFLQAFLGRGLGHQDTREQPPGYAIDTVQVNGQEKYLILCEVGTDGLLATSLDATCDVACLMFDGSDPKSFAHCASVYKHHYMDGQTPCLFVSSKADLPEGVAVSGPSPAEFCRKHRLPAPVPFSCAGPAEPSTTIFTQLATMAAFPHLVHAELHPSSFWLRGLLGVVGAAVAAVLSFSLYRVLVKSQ
Sequence of GSN (human) (P06396 28-782 limits assumed): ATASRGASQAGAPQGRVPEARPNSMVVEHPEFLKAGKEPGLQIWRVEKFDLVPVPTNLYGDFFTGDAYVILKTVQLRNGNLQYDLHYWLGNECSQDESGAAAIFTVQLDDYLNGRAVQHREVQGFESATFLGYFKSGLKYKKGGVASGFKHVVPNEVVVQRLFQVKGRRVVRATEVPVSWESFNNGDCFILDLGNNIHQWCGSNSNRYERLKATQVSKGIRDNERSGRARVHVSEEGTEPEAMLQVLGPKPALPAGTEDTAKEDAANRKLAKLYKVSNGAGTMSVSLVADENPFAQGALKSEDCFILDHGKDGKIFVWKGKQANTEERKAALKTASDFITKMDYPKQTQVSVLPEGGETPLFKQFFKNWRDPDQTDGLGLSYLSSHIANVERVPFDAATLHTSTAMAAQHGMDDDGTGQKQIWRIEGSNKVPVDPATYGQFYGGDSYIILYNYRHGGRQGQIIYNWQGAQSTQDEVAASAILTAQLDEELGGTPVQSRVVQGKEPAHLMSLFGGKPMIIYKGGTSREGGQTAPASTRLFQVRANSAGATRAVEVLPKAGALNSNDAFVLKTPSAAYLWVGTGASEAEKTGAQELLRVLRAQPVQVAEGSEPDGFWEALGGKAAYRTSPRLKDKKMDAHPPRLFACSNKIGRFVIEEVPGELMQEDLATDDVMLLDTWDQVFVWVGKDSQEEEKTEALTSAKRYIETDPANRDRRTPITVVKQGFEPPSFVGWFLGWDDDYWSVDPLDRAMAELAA
Sequence of P0AA25.2 [thioredoxin: P0AA25] (P0AA25 2-109): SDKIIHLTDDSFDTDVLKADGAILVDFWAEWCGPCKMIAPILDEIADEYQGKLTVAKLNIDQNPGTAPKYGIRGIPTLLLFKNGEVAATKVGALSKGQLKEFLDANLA
Sequence of EMILIN1 (human) (Q9Y6C2 22-1016 limits assumed): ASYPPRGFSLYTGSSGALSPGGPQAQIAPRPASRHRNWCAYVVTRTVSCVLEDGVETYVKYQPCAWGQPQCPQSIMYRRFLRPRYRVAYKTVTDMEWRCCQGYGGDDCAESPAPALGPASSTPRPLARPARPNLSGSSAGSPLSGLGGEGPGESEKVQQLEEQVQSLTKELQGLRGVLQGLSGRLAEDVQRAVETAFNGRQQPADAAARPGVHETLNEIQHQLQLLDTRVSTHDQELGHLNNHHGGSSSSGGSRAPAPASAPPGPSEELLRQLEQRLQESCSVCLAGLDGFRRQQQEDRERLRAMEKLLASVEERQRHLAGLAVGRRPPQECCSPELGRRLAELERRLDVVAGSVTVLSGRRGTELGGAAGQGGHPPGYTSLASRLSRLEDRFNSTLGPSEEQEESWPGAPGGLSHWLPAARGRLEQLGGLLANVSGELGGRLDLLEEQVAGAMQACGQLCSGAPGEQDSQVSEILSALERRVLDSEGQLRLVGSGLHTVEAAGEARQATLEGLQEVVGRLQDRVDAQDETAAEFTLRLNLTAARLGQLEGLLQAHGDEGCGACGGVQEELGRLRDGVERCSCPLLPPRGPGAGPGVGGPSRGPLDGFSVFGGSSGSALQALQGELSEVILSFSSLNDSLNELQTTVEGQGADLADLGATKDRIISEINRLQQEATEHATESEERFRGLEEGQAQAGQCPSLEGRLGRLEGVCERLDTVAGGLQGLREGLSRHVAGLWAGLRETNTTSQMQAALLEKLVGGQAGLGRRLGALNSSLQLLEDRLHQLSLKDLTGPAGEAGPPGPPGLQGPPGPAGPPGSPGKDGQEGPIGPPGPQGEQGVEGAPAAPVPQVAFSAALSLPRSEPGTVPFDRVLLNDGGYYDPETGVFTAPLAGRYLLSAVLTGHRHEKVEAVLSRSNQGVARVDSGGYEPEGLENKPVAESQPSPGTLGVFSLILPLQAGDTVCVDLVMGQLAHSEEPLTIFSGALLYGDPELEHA
Sequence of HBB (human) (P68871 2-147 limits assumed): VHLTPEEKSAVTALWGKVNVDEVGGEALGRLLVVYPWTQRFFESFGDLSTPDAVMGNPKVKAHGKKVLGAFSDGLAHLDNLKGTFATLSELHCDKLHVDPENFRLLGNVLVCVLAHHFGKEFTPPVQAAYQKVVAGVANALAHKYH
Sequence of PSMB5 (human) (P28074 60-263 limits assumed): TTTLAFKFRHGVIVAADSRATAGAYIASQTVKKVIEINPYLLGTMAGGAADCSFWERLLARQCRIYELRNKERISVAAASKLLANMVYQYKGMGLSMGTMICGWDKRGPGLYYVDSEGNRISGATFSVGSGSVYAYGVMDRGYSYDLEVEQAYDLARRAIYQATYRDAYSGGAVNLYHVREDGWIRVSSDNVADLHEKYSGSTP
Sequence of LGALS7B (human) (P47929 whole entry): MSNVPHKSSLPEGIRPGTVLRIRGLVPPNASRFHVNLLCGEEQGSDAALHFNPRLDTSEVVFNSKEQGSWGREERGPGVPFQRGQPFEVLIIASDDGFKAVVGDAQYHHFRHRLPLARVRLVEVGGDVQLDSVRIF

As to “N-terminal FLAG tagged B3GNT2 (from UniProt Q9NY97 1-397) (enzyme)”, the co-IP/MS count, N-term FLAG is 2 in assay [1]; 2 in assay [2]; 4 in assay [6]; 11 in [7]; 2 in assay [12]; 4 in [13]. For the same substance, the co-IP/MS count, N-term FLAG stood at 7 in [14]; 4 in assay [16]; 4 in [17]; 3 in [20]; 2 in assay [28]; 2 in assay [29]. Besides, the co-IP mass spectrometry count worked out at 7 in assay [3]; 2 in assay [4]; 2 in assay [5]; 3 in assay [8]; 2 in assay [9]; 11 in assay [10]. The co-IP mass spectrometry count in assay [11] is 0; in assay [15], 2; in assay [18], 2; in [19] it was 3; in assay [21] it was 8; in assay [22], 10. For the same substance, the co-IP mass spectrometry count in assay [23] worked out at 10; in [24], 8; in assay [25] it was 10; in assay [26] it was 4; in [27] it was 2.
Turning to “IgG control (Millipore Sigma 12-371) (antibody)”, the co-IP mass spectrometry count came out at 0 in assay [30]; 17 in assay [31]; 9 in [32]; 4 in assay [33]; 0 in assay [34]; 3 in assay [35]. Besides, the co-IP mass spectrometry count in assay [36] is 5; in assay [37] it was 4; in assay [38], 11; in [39], 2; in assay [40] it was 3.
